Laboratory results from US20170158755A1 (PROTHENA BIOSCIENCES, published 2017).
One block for each binder: values may come before it.

Tests used:
[1] = biological target: T1, mouse His-laminin-α4 (mouse, UniProt P97927 826-1816, limits assumed); test: ELISA hMCAM-Fc capture blocking assay; antibody pre-incubated with mouse LAMA4-His; blocked partner: captured hMCAM-Fc
T1 construct: Bought His-tagged recombinant protein; also called Murine LAMA4; recombinant mouse LAMA4-His
T1 sequence (looked up): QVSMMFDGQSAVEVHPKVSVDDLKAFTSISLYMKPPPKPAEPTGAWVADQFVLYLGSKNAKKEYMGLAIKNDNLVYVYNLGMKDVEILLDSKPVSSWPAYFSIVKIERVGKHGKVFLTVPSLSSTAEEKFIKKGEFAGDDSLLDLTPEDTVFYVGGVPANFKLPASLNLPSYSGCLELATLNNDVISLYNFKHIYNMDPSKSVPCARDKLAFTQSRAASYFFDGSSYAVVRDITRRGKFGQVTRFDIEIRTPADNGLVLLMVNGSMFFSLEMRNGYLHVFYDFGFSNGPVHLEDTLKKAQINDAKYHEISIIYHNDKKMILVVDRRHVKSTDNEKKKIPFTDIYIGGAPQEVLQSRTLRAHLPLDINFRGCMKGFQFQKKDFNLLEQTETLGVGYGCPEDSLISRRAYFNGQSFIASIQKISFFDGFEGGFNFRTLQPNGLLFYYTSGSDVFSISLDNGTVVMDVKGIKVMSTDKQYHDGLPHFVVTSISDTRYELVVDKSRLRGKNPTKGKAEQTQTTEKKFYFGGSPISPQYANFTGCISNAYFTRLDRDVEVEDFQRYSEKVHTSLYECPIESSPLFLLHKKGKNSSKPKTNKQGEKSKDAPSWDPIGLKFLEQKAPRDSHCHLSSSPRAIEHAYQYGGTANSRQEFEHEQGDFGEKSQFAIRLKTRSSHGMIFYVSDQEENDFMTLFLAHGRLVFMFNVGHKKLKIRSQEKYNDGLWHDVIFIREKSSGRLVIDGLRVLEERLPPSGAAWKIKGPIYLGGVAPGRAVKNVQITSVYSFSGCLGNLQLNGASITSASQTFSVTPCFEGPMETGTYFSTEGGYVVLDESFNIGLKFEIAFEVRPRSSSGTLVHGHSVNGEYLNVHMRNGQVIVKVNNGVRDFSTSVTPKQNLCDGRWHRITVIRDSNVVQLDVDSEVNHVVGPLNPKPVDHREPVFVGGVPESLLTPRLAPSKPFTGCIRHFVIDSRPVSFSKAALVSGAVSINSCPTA

[2] = biological target: recombinant laminin 411 (human, UniProt P07942 22-1786; P11047 34-1609, limits assumed); test: cell-based or functional assay
[3] = biological target: T2, LGde3, human LAMA4 G domain with LG3 deleted, displayed on 293 cells (human, UniProt Q16363 830-1821, limits assumed); test: flow cytometry, 650-labeled MCAM-Fc on 293 cells displaying the variant
T2 construct: pDisplay construct on 293 cells; vector tags and anchor not written here; also called LGde3 (LG12); LGde3 (LG23)
T2 sequence: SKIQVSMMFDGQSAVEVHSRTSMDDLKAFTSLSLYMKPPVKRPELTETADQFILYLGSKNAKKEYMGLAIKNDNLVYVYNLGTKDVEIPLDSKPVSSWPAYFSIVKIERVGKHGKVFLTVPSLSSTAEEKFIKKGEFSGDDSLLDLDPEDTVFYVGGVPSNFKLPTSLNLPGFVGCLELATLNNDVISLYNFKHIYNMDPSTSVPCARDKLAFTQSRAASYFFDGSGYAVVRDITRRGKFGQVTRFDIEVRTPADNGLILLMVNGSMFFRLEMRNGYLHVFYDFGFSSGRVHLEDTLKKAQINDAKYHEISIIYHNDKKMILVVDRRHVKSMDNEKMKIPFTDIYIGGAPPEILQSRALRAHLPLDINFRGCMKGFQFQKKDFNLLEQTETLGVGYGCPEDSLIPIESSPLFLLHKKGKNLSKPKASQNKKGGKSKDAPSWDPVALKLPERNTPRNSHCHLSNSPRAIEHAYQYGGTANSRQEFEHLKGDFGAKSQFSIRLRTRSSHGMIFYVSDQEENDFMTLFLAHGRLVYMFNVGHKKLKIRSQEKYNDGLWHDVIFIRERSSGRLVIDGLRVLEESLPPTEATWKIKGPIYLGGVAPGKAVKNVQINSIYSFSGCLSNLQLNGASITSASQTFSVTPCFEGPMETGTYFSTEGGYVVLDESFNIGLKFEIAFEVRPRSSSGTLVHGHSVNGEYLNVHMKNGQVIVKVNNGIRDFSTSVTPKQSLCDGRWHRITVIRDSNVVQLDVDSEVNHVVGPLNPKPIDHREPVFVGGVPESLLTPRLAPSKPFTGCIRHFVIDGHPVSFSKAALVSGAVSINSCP
Text: LGde1 has a full-length G domain (i.e., LG1-5) with LG1 deleted, LGde2 has a full-length G domain with LG2 deleted, and LGde3 has a full-length G domain with LG3 deleted. Recombinant MCAM-Fc protein was able to specifically bind 293 cells expressing LAMA4 variants LG1-5, LG1-3, and LGde 1 (LG23), but not 293 cells expressing LAMA 4 variants LG4-5, LGde2 (LG13), or LGde3 (LG12).

recombinant laminin 411, sequence (chain, as listed by the source limits assumed, chain 1 of 3): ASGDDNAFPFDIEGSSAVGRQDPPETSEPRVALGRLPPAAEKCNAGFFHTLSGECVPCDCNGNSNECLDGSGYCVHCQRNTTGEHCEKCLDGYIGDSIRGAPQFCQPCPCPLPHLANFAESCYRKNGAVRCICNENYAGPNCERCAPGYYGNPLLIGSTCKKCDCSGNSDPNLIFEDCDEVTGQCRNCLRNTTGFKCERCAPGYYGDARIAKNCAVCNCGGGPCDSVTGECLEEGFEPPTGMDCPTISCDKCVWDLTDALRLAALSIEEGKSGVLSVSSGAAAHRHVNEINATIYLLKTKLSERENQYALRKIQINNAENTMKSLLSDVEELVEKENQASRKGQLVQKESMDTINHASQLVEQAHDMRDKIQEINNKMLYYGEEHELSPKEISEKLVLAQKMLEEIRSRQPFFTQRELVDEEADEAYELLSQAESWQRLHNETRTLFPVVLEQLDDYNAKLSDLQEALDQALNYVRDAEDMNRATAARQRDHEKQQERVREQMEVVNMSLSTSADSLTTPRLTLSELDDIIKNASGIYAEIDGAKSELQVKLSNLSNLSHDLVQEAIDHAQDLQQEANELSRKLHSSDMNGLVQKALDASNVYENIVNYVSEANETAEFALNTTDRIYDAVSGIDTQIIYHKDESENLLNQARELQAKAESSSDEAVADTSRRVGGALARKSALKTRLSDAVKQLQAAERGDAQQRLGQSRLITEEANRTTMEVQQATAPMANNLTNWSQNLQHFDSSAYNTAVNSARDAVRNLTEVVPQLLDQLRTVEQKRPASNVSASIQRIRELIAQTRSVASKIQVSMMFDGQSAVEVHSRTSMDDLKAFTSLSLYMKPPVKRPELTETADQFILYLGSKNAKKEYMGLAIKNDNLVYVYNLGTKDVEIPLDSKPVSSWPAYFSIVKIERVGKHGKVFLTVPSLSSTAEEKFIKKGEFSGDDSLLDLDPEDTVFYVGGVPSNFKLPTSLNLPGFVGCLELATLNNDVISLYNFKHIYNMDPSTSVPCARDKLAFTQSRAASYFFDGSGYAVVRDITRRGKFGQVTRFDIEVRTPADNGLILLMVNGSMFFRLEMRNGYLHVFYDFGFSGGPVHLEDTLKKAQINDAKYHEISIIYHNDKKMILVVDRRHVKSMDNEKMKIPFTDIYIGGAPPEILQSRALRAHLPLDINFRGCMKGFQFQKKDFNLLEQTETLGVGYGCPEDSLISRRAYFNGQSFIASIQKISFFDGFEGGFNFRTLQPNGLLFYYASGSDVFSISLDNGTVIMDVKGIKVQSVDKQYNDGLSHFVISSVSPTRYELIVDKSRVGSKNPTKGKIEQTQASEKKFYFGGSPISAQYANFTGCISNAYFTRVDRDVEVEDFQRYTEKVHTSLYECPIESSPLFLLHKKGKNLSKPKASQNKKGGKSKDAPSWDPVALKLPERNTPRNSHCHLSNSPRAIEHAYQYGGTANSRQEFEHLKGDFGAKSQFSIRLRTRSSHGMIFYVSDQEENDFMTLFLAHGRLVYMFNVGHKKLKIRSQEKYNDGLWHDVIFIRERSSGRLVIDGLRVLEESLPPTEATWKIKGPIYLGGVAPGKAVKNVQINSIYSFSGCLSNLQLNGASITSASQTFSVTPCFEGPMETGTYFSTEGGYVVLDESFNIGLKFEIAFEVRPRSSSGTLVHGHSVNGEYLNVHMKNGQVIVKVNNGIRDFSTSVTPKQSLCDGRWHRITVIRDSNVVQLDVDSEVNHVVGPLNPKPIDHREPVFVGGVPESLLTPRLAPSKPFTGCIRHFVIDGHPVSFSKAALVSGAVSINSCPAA
recombinant laminin 411, sequence (P07942 22-1786 limits assumed, chain 2 of 3): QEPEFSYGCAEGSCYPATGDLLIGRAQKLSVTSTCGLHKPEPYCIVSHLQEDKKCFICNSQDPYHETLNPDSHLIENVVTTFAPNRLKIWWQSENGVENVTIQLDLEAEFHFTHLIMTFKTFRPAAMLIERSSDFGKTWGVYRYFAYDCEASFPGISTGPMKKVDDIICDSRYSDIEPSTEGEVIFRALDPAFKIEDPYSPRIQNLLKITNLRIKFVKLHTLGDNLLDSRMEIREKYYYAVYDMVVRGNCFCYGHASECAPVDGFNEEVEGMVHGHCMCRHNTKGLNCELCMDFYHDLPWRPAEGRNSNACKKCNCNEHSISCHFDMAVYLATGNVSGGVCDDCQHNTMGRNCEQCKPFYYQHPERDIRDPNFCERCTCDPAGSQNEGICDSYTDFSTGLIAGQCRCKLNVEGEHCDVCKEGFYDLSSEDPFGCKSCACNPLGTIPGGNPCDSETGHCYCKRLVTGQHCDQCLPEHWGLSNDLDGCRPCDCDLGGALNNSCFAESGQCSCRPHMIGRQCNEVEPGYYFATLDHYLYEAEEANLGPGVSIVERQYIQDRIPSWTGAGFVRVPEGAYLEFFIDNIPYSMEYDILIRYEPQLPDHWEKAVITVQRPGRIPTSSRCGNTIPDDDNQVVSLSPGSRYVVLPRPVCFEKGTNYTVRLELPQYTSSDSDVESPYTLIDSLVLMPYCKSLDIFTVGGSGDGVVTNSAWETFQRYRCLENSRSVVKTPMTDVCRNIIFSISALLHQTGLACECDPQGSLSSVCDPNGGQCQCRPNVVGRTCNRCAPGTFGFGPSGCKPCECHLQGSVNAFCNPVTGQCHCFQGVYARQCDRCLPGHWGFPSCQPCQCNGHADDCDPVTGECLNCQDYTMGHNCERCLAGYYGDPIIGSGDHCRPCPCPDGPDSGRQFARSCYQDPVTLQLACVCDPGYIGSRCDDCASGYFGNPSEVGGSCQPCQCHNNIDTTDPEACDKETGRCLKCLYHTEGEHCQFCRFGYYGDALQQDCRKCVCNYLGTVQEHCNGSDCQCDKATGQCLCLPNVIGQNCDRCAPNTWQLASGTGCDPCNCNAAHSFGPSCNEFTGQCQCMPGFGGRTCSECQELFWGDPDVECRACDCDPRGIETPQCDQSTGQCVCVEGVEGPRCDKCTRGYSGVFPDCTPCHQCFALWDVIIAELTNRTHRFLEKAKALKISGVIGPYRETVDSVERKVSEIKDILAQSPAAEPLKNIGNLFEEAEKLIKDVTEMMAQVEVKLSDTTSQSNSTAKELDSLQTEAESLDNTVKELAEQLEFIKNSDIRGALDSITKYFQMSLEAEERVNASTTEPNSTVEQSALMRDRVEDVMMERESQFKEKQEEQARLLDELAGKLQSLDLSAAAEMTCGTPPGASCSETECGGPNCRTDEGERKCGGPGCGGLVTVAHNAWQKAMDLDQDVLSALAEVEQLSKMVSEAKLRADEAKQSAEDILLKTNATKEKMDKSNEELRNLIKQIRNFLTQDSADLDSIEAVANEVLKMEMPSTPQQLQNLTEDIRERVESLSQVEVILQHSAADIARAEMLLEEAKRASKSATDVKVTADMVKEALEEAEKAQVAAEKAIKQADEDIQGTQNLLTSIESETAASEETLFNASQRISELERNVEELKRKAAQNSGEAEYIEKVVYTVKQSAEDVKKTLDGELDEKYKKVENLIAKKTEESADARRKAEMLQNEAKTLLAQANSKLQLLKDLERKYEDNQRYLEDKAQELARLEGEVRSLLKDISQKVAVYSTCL
recombinant laminin 411, sequence (P11047 34-1609 limits assumed, chain 3 of 3): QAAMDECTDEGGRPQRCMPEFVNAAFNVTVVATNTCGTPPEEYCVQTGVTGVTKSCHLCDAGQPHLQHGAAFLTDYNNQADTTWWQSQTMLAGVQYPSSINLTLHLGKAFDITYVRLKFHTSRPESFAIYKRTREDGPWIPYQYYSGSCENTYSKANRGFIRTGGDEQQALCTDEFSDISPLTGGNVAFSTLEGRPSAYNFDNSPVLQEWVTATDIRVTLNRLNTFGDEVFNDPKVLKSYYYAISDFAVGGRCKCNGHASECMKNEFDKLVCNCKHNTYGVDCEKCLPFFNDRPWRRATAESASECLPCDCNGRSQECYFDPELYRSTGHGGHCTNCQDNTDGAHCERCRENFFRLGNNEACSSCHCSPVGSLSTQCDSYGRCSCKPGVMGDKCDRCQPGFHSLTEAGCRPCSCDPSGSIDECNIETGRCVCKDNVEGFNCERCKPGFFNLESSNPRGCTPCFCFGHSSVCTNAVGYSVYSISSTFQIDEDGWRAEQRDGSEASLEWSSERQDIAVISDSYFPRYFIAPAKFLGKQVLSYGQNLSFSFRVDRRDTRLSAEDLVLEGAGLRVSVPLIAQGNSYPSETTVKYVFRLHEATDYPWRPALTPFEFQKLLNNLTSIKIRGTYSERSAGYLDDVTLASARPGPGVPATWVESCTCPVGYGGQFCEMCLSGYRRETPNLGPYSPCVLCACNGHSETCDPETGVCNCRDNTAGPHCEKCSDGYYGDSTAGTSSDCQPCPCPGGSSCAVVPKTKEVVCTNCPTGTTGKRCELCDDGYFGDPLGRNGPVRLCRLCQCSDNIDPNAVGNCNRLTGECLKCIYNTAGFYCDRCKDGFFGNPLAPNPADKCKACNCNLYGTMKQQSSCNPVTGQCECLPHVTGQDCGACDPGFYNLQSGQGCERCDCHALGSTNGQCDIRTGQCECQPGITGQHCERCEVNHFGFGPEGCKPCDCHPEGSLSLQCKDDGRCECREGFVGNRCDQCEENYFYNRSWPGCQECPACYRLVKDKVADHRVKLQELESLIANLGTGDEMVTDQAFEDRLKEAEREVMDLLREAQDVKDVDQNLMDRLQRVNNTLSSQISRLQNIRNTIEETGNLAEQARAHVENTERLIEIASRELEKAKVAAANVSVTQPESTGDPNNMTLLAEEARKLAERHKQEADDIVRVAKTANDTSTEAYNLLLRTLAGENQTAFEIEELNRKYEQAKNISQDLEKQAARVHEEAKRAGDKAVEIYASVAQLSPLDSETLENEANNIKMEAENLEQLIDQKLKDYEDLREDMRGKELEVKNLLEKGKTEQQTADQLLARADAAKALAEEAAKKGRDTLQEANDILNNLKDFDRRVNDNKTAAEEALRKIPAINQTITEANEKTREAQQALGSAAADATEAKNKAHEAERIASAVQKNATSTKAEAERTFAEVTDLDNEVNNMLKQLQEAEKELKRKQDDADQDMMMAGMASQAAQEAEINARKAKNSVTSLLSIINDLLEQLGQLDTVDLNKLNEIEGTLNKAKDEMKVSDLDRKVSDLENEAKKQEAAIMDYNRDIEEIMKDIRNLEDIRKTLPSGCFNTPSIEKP

IC50 (read off the curve) [1]: ~0.1 µg/mL
laminin-411-induced pAkt activation (pAkt/Akt ratio by immunoblot) in WM266.4 cells, 20 ug/ml antibody [2]: ~50 % inhibition
B1: mouse monoclonal antibody 19C12 (antibody, V domains shown)
VH: QVQLQQSGAELVKPGASVKISCKASGYAFSTYWMNWVKQRPGEGLEWIGQIYPGDGDTNYNGKFKGKATLTADKSSSTAYMQLSSLTSEDSAVYFCARSDGYYDYWGQGTTLTVSS
VL: NIVLTQSPASLAVSLGQRATISCRASESVDSYGTSFMHWYQQKPGQPPKLLICLASSLESGVPARFSGSGSRTDFTLTIDPVEADDAATYYCQQNNEDPPTFGAGTKLELKR
notes: Mouse hybridoma antibody; Mouse IgG2b was used as its isotype control; also called m19C12

binding result [3]: no binding
B2: mouse MCAM-Fc fusion protein (Fc fusion, UniProt Q8R2Y2 24-563, looked up)
chain: VPGEEKQPVPTPDLVEAEVGSTALLKCGPSRASGNFSQVDWFLIHKERQILIFRVHQGKGQREPGEYEHRLSLQDSVATLALSHVTPHDERMFLCKSKRPRLQDHYVELQVFKAPEEPTIQANVVGIHVDRQELREVATCVGRNGYPIPQVLWYKNSLPLQEEENRVHIQSSQIVESSGLYTLKSVLSARLVKEDKDAQFYCELSYRLPSGNHMKESKEVTVPVFYPAEKVWVEVEPVGLLKEGDHVTIRCLTDGNPQPHFTINKKDPSTGEMEEESTDENGLLSLEPAEKHHSGLYQCQSLDLETTITLSSDPLELLVNYVSDVQVNPTAPEVQEGESLTLTCEAESNQDLEFEWLRDKTGQLLGKGPVLQLNNVRREAGGRYLCMASVPRVPGLNRTQLVSVGIFGSPWMALKERKVWVQENAVLNLSCEASGHPQPTISWNVNGSATEWNPDPQTVVSTLNVLVTPELLETGAECTASNSLGSNTTTIVLKLVTLTTLIPDSSQTTGLSTLTVSPHTRANSTSTEKKLPQPESKGVV
notes: extracellular domain; Made in house; also called mMCAM-Fc; 650-conjugated mouse MCAM-Fc; not shown: human IgG1 (Fc part of the fusion)
